Measured values taken from paper PMC9482650, “Quantitative fragmentomics allow affinity mapping of interactomes” (Nature Communications, 2022).

Key:
Experiment in all cases: holdup assay
Set-up in all cases: key: below the threshold = too weak to quantify, mostly under pKd 3.1 to 4
[1] = molecular target: T1, ARHGAP21, Q5T5U3
T1 sequence (Q5T5U3 45-169, limits assumed, looked up): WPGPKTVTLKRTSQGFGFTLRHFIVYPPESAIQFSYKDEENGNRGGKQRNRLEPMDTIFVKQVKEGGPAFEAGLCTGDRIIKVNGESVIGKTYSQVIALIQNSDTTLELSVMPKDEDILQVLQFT

[2] = molecular target: T2, DFNB31_1, Q9P202
T2 sequence (Q9P202 135-233, limits assumed, looked up): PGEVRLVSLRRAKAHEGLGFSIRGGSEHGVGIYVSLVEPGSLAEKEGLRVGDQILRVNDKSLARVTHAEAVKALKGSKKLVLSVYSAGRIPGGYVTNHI

[3] = molecular target: DLG2_3, Q15700
[4] = molecular target: FRMPD3, Q5JV73
FRMPD3, Q5JV73, sequence (Q5JV73 12-100): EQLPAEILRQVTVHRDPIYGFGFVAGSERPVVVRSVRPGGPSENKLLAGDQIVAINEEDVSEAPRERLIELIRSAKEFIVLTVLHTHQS

[5] = molecular target: GIPC2, Q8TF65
GIPC2, Q8TF65, sequence (Q8TF65 112-203): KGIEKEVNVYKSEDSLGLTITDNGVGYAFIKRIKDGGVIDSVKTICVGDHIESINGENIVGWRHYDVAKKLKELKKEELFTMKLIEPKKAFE

[6] = molecular target: GOPC, Q9HD26
[7] = molecular target: GORASP2, Q9H8Y8
[8] = molecular target: GRID2IP_2, A4D2P6
GRID2IP_2, A4D2P6, sequence (A4D2P6 272-370): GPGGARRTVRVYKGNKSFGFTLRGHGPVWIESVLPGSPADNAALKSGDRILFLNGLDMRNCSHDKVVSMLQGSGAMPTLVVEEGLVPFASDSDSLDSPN

[9] = molecular target: T3, GRIP1_7, Q9Y3R0
T3 sequence (Q9Y3R0 999-1096, limits assumed, looked up): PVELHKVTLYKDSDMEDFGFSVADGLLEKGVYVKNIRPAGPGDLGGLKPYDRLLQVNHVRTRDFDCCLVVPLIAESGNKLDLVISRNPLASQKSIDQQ

[10] = molecular target: T4, HTRA3, P83110
T4 sequence (P83110 354-453, limits assumed, looked up): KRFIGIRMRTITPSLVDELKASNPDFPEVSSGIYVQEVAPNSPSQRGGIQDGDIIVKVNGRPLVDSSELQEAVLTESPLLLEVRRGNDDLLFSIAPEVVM

[11] = molecular target: Inadl_1, Q8NI35
Inadl_1, Q8NI35, sequence (Q8NI35 113-229): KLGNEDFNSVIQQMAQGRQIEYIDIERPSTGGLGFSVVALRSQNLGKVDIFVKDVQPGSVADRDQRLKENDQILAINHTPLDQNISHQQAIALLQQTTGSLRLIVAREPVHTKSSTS

[12] = molecular target: Inadl_3, Q8NI35
Inadl_3, Q8NI35, sequence (Q8NI35 359-469): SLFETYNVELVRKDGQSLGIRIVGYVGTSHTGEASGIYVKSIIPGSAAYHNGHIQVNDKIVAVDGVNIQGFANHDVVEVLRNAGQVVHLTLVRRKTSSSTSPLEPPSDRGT

[13] = molecular target: Inadl_5, Q8NI35
Inadl_5, Q8NI35, sequence (Q8NI35 673-780): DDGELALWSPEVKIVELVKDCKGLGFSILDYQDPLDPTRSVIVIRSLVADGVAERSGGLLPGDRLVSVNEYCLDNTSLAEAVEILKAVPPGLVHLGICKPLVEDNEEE

[14] = molecular target: LAP2, Q96RT1
LAP2, Q96RT1, sequence (Q96RT1 other isoform, or with tags, fused parts or gaps): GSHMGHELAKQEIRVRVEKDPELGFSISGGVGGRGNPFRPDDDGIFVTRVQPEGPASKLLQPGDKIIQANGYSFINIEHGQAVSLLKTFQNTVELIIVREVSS

[15] = molecular target: T5, LIN7C, Q9NUP9
T5 sequence (Q9NUP9 88-185, limits assumed, looked up): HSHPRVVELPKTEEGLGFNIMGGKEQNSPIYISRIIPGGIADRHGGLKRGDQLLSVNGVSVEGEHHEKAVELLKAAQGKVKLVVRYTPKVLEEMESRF

[16] = molecular target: T6, LNX2_3, Q8N448
T6 sequence (Q8N448 463-564, limits assumed, looked up): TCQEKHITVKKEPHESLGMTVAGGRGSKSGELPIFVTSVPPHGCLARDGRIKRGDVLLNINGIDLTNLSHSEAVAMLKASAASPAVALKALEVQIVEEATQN

[17] = molecular target: T7, MPDZ_5, O75970
T7 sequence (O75970 695-796, limits assumed, looked up): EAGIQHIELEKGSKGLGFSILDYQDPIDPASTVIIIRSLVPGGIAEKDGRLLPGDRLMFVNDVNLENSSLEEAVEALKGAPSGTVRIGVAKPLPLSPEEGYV

[18] = molecular target: NHERF2_2, Q15599
NHERF2_2, Q15599, sequence (Q15599 142-238): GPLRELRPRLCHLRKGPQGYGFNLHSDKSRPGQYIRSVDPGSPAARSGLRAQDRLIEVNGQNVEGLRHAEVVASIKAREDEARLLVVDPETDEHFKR

[19] = molecular target: T8, PARD3B_1, Q8TEW8
T8 sequence (Q8TEW8 196-299, limits assumed, looked up): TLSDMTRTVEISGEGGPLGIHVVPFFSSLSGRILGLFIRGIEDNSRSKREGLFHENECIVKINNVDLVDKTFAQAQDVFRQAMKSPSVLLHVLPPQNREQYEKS

[20] = molecular target: T9, PDZD2_2, O15018
T9 sequence (O15018 329-429, limits assumed, looked up): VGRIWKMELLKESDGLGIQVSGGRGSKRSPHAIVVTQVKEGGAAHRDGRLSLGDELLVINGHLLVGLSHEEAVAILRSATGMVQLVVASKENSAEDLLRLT

[21] = molecular target: SCRIB_2, Q14160
SCRIB_2, Q14160, sequence (Q14160 857-960): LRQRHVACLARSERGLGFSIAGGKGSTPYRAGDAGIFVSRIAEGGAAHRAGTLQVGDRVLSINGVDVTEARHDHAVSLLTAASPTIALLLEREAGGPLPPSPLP

[22] = molecular target: FRMPD2_1, Q68DX3
FRMPD2_1, Q68DX3, sequence (Q68DX3 770-861): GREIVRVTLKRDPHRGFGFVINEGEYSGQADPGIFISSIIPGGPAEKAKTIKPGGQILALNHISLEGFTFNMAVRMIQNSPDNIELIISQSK

[23] = molecular target: T10, SNTA1, Q13424
T10 sequence (Q13424 82-180, limits assumed, looked up): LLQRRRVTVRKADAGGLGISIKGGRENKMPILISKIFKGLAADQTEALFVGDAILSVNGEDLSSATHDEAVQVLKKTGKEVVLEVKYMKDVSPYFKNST

[24] = molecular target: TJP1_2, Q07157
TJP1_2, Q07157, sequence (Q07157 181-274): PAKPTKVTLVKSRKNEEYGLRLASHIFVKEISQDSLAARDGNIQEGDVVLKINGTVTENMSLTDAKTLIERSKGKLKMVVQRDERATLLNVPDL

[25] = molecular target: T11, TX1BP3, O14907
T11 sequence (O14907 10-122, limits assumed, looked up): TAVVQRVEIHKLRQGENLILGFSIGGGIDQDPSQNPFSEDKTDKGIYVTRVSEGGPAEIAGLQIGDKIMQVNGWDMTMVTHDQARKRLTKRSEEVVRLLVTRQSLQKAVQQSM

[26] = plain residues with an end cap or a label only (N-terminal biotin on a linker: ado-ado)
[27] = plain residues with an end cap or a label only (N-terminal biotin on a linker: (peg)3)

KSGKQTMLVV [TRIM29, Q14134;Q14134-2] was tested, and the pKd [1, 26] was 4.14, the pKd [2, 26] was “below the threshold” and the pKd [3, 26] was “below the threshold”. For the same binder, the pKd [4, 26] was “below the threshold”, the pKd [5, 26] was “below the threshold” and the pKd [6, 26] was “below the threshold”. The pKd [7, 26] was 4.6, the pKd [8, 26] was “below the threshold” and the pKd [9, 26] was “below the threshold”. For the same binder, the pKd [10, 26] was “below the threshold”, the pKd [11, 26] was “below the threshold” and the pKd [12, 26] was “below the threshold”. The pKd [13, 26] was “below the threshold”, the pKd [14, 26] was “below the threshold” and the pKd [15, 26] was “below the threshold”. The pKd [16, 26] was “below the threshold”, the pKd [17, 26] was “below the threshold” and the pKd [18, 26] was “below the threshold”. The pKd [19, 26] was “below the threshold”, the pKd [20, 26] was “below the threshold” and the pKd [21, 26] was “below the threshold”.

For NLNSSEGVPDLLV [SARS-CoV-E, P59637], the pKd [1, 27] was 3.88, the pKd [2, 27] was “below the threshold” and the pKd [3, 27] was “below the threshold”. The pKd [22, 27] was “below the threshold”, the pKd [4, 27] was “below the threshold” and the pKd [5, 27] was “below the threshold”. The pKd [6, 27] was “below the threshold”, the pKd [7, 27] was “below the threshold” and the pKd [8, 27] was “below the threshold”. The pKd [9, 27] was 4.04, the pKd [10, 27] was “below the threshold” and the pKd [11, 27] was “below the threshold”. For the same binder, the pKd [12, 27] was “below the threshold”, the pKd [13, 27] was “below the threshold” and the pKd [14, 27] was “below the threshold”. For the same binder, the pKd [15, 27] was “below the threshold”, the pKd [16, 27] was “below the threshold” and the pKd [17, 27] was “below the threshold”. For the same binder, the pKd [18, 27] was “below the threshold”, the pKd [19, 27] was “below the threshold” and the pKd [20, 27] was “below the threshold”. For the same binder, the pKd [21, 27] was “below the threshold”, the pKd [23, 27] was “below the threshold” and the pKd [24, 27] was 5.18. For the same binder, the pKd [25, 27] was “below the threshold”.

For YLEPVLSSEL [ATP2A2, P16615;P16615-3], the pKd [1, 26] was “below the threshold”, the pKd [2, 26] was “below the threshold” and the pKd [22, 26] was “below the threshold”. For the same binder, the pKd [4, 26] was “below the threshold”, the pKd [5, 26] was “below the threshold” and the pKd [6, 26] was “below the threshold”. For the same binder, the pKd [7, 26] was “below the threshold”, the pKd [8, 26] was 4.22 and the pKd [9, 26] was “below the threshold”. The pKd [10, 26] was “below the threshold”, the pKd [11, 26] was “below the threshold” and the pKd [12, 26] was “below the threshold”. For the same binder, the pKd [13, 26] was “below the threshold”, the pKd [16, 26] was “below the threshold” and the pKd [17, 26] was “below the threshold”. It also gave a pKd [18, 26] of 4.46, a pKd [19, 26] of 4.04 and a pKd [20, 26] of 4.41. The pKd [23, 26] was “below the threshold”, the pKd [24, 26] was “below the threshold” and the pKd [25, 26] was 3.94.
